Test results as given in a protein production outcome set (Wang et al. 2014).

Test: label from the status in PepcDB records

Row | Sequence | protein production
1 | MGTVMDVLKGDNRFSMLVAAIQSAGLTETLNREGVYTVFAPTNEAFRALPPRERSRLLGDAKELANILKYHIGDEILVSGGIGALVRLKSLQGDKLEVSLKNNVVSVNKEPVAEPDIMATNGVVHVITNVLQP | not failed
2 | MGVALRPLLAEYKESPGWDGLGGIAAVDAFNALYQFLSGIRQADGAPLMDGQGRITSHLSGLLFRNANLIEKNITPIYVFDGKPPVFKASTLSKRREVRENAADAWEKALKEGDEESARKYAMASSKIDAFIIDSSKELLSALGIAWIQAPEEGEAQSSFMTKNGDVTYAVSQDYDSLLFGAPDLVRNITVSGKKRIRGKVLSVYPERLRLEEVLTGLSVTQEELIQIALLIGTDYNSGVPGVGPKTAVKIVREGKFYDRIGESENAAEPDQLIGYFMDPPVERSYNIESRSPDPDRVIDLLCGEHGFTQERVEAGLERLGAKKGQATLDAWF | failed
3 | MGVARPNFFIVGAAKCGTSSLDRYLSQHPDIYIPPKKEAHFFSIPDFPERFTGPGDEGMNLYTIRDEDAYMRLFDGVRGERAVGEASVFYLFYPGTAQRMYDAYPDAKILIMLRNPVDRAFSAYMHLVRDERETLSFRESLAKEEERIRQHYEPLWYYRAVGLYAAQVKRYLDVFGREQVKVILFEEFARDPVQVVRDCCAFLGVSTDFVPDTSIRHNESGVPKSRSLYNFIAKPNALKEIVKPFIPAAVRERLGNRAKSMVLGRMEMEPDLREELTAFFAPDVARLEALIHRDLSAWRRPARAAGSQ | not failed
4 | MGVFDKFLDIMKLNDDEYDDDDFYDDDFEDDDFDEKPHRSIFGNKKSRSDDFDDFDMDEDKHLAPSSGNKVTPMRQPAARRGVNMEVCVVKPTSVDDSREITETLLAGRTVILNLEGMDLEIAQRIIDFISGATFAISGNLQKISNYIFLVTPTNVDILEHHHHHH | not failed
5 | MGVLQRFERRLEGMIEGTFARAFKSELQPVEVASNVQREMDERAAIVAQGRTLVPNDFVVELSASDRERLAVYADNLGQELSKLAREYATEQGYSFVGPVRVRFETADDLQTGRFRVRSAVIRGDTVKDGEIIKPVTDHPRRGSVIPGRPRLLLSPGGAAADGSLTAQGAQQAYELTSEVTLLGRGTDCDLRLVDNGVSRHHAEIRLEGNEAILVDLNSTNGTFVNGQQVQRARLVDGSRISLGRTTMTFRRD | failed
6 | MGVLTTFISQKALVGGYDNTIEPGVVILSGATITCNVSIGQGTFINKSTVISHDVRIGRYCEVSPGAKVLGRAIIGDRTEIGANAVILPDVIVGADCKIGAGAVVTRNIDSHTTVAGVPARSITKSSNNAFKLKSKIRNLLYHIRIADFRKLREYNHYVFGLEHHHHHH | failed
7 | MGVLWNSIQSVLVVVLIMILGFVLRRAGWFDDKFAGTISKFIKNIALPASIFVSVLSRLTRGQLGSFAGYLAYAFLAVIIGYLIAFALVKVMRVRPGRKGIFINAIVNANTIFIGLPLNIALFGDKSMTYFLVYYIVNTVSTWAFGVFLISNDDPTKSKEKTHNKIDWKKVIPMPLVGFLVALIFLLLNIPIMKVSFVSSTLTYVGNLVTPLSLIYIGIVLADAGLKSIRFDRDTVVALVGRFILSPIVMILVLMVAGNLGASFPTLASQTLIVQSATPMLAVLPILANEAHGDVEYATNIVTTSTVLFIVVVPVLMTLIQYI | failed
8 | MGVNSQKSQGEDVSPDSNIETKEGTYVGLADTHTIEVTVDNEPVSLDITEESTSDLDKFNSGDKVTITYEKNDEGQLLLKDIERANLEHHHHHH | failed
9 | MGWFSAPEYWLGRLALERGTAIIYLIAFVAAAQQFRPLIGEHGMLPVPRYLAGQSFWRTPSIFHFRYSDRVFAGVCWLGAVLSAAVVAGAASFVPLWATMLIWLTLWVLYLSIVNVGQAWYSFGWESLLLETGFLMIFLGNERTAPPILTLLLARWLLFRVEFGAGLIKMRGDSCWRSLTCLYYHHETQPMPGPLSWFFHHLPKPLHRIEVAGNHFAQLVVPFGLFTPQPAASIAAAIIVVTQLWLVASGNFSWLNWLTILLACSAIDTSSAAALLPMPAQPALSAPPQWFAGLVVVFTAAVLLLSYWPARNLLSSHQRMNMSFNPFHLVNTYGAFGSICRTRREVVIEGTDESPITEQTVWKAYEFKGKPGDPRRLPRQWAPYHLRLDWLMWFAAISPGYALPWMTPFLNRLLRNDPATLKLLRHNPFPQSPPRYVRAQLYQYRFTTVAELRRDRAWWHRTLIGRYVPPMSLRKVASPPAD | failed
10 | MGWHCVFFQMDLRYCSVQTLARTHQVMRELVQASAFVELNRFFDRLEAQWRQAPPGEFPAYLAAIDGHMLLDQENQGDRALSQVLRAWIDACPRAYHPQVVMGMHCFHRACQVQVDGPRNAARLLAVAQICESATAHLLRAMDRSAHPVAAAIGMLRISAQFHEPGWLLQLFQGEPARFRPSAHADVEVQEAAAPLLVRHGLLPLAELPQSLPRYLGKRVDHENEDPRYYWLRHALIARPGCFEAIQALAVYLLPRWGGSLDAFELLVNGPLCATWDERLRNALRWMAVEGRLKLPQADKVQAVADWQHVFEDWSQRPLRPRERAVVLAWRGALRSRVSGDHAGAMRDFGASLACNADLGAIRAMGVPFRCLAELILRDGMADEKQLLHGAIERLCDGRSHAAACALRAVGHRFGLWALPRSAEQARLWLQRAVSRQCAGQAPGFEVLEVARLLWAANRHEVACYLYERCAELNLPGAALALYELHHGGLANTPAHYLDDEAAGYWLQRAVEAGSRQAKYNLACLRMDGDEDLNERSAMLAVRRLLVDALGNGQTNACARLHLGILLRRFGEAQERSEAVAYLLSLVEHPDPWLAGRASAELGLAWMQGRGTRKQSRFAAIQWVNRAASLQPRDSAIGDIQAQILNSHSRVKTLFTQCGAALFRGTLHASELPPKQAFTHAESLRVKPASDGLRRAHKPRLSGPMQG | failed
11 | MGWVTDWSAQAACRTTDPDELFVQGAAQNRAKAVCTGCPVRTECLADALDNRVEFGVWGGMTERERRALLRRRPTVTSWRRLLETARTEYERGVGIVPLDDDEVYENYAAVG | failed
12 | MGYDPRISVSKWYEKWMLIYVVHSVKATTLSNYVNGFERVREYIGYMRLIEVRPTHILDMIKGLEEEGYARTTVIQSLSVVRQLFKKAYGGKMIPIDPVADIKLEHHHHHH | not failed
13 | MHALYITHPQVKIDPAVPVPEWGLSERGAERAREASRLPWAKALRRIVSSAETKAIETAHMLAETSGAAIEIIEAMHENDRSATGFLPPPEFEKAADWFFAHPEESFQGWERAIDAQARIVEAVKAVLDRHDARQPIAFVGHGGVGTLLKCHIEGRGISRSKDQPAGGGNLFRFSIAEFSLAAASPTCDWTAMETWQG | not failed
14 | MHAQTKDLTPIKGIRYYYPPDDAVLVFKDEKERIHYGGMPVPLLEDDFARLDGEPSYDEVGRGVYQALRSNPDCILCDKYAALLRDAYPHYLAELASNAIMIDSKDVEVPYLDRKIACLKVLALLEPQNPALPLEIGRVFLDRGMRLSALHLSTVSIYRAEHFLNRAHTLAPDDRNINRYLGEAYYLLGKYDEAVGFWRKATTTDEPEAERLRERIERISAGNVPLIPPVDYLEAIGAAFACNQTGEYEESIAILQDILMDPVFSEEFPIPEIHCVIGKGFTALDMPKYAEAEFRQALVMDPAHEEARALLATIAAA | failed
15 | MHATDQTFQILLSQLLEKVEDRCPECGSEQYVWQQKNKDGTERCAPTCWSCGYKMLKKHEQQANQQRSQESFMARTQKFFHQGSLIADDALRQCRLTNYQTTELETRQAKERALAAVSAIVEGKPIHVIFSGKPGVGKSHLAISILVEVLERSAYQKYCLFVSYSELLEKLKMSMNESAKSQAKAQAYITRMKKADVLVLDDLGAELGIKNKVSTDFNNDILNRILEARQNKATIFTTNFSGKQLVEAYGTRIISRLMKHANGYVFQYKDTTDKRMRSVKLEHHHHHH | failed
16 | MHDALRAYIEKYASEKISDADFEEVKKAFTFKRYKKGQFLLQEGEVSKYTAFVLKGSMRQYSVDAKGTEHIIHFGIENWWVGDRESSTMLTPSNYNIDAIEDTEVLLTTSEDLQQLTAALPVIGKMVNTMNQRNFIASQKRIHDALSLTAEERYLELLKNHPDFLQRFPQTMLASYLGITAETYSRIRKKALK | not failed
17 | MHDGSVFYTIFLIFAGAAFFSTLVLYTKQSLLVAYITLGAILGPWGFKLVSDVTVVKQIGDIGIVFLLFLLGLHLQPQNLIHMLRKVTWIAIVSSILFAALAYGIGRWFGLTVTESLILGGAMMFSSTIIGLKLLPTTILHHQHTGEVMISVLLMQDVIAIVLLILLNSAHQDGNLSISDFILVIIALPALCLFSFLFERYILIKLLARFDRTQEYVFLLSIGWCLGISVLAQTIGLSEDIGAFIAGVALASSPISLFIAESLKPLRDFFLVMFFFSIGATFNFGFGAQVVIPAVILATLILIIKPLLFYILLARSGEKKQVAKEVGIRLGQGSEFSLLVASIALSTNLISEVASNLIQATTILTFIVSSYLVVLKYPTPIALSEKMRKD | failed
18 | MHDTIPEYIRDGAQDMLAQGGVQKLGLKKEGGTWEIDGSIQSDDFQIYVSRISLTPSEHRASYVCNCSDSFSGVCRHVAATALKMLSTFDTRPGSDEPAKPRVEWRQSFRSFFSTALDPEPGKHYLIFRFHPEPGRLTVAFFRARQNKSGLSTVHNEITLEQIINNPEWCELSPQLVDVAKQVGQFVDYYGHRIEIPDGLVSWFFWAIRREYYLFWLDTESPCRIENTALGLKLHPRLGDDGLSFDVMLYREGKPPFSILGGENAATFHGQMPMWVCWNRSFYPVQTSLPPQLVQDLIRQHPSIPQEDMSEFLDRVWTRLPSSDLYGQEDFLKLMEPVFQPARYSPKLFLDEEGSLLTLEIQNVYETAHGEFYLAGPNPDFQTGSYTFEGTTFLIRRHQDEEAGLITQLSEMRFQPRSSRLWFLEPEEAIAFLLDAYPRLVEKYRVYGEKALSRYKVRLSQPVITAKVESNEEEKWFSLDIDVEYDGQKVPIDKIWKAWSQGKRYVQLKDGSYTSLPETWLERLGHKLQALGLDPDKPPQKQFKQFEAPVLDSLLDDLPGAETDSFWNSLRDKIRTFREIRAVNAPRGLNATLRGYQMQGLAYLNFLREYGFGGILADEMGLGKTVQTLSFVQHMVESGKIGPNLIVVPTSVLPNWEREAQKFVPELKRLIIYGTRREGMFKLIDESDLVVTTYALLRRDLEELQNHTFNCIILDEAQNIKNPNTITARSVRRIKADMRLCLSGTPIENNLFELWSLFEFLMPGFLGSQHAFQRGVIKPIKDGDCETLDYLRTRVRPFILRRTKSEVAKDLPPKIENTYYCALAEEQAELYTALARKLKEQVLADVDEKGLAKSQMSILDALLKLRQICCHPRLLKLDMPGFSTNLPSGKFDAFKDMITDIVEEGHKVLVFSQFVQMLHIIRSWLQISGTPFCYLDGTSKDRFEQVDKFNNSPDIPIFLISLKAGGTGLNLTSADYVIHYDPWWNPAVESQATDRTHRIGQTRQVFSYKLICQNTVEEKILKLQDMKRGVAEAIIPGQETWKSLTREDLEMLFDI | failed
19 | MHEFLKAFKDAFPHTISILLGYLLMGMTFGMLLVQQGYDYKVALFMSLFIYAGAVQFVAITLLSAQASLMNVVIVSLLVNARQTCYALSMLDRFKNTKWRLPYLAHALTDETFALLNLYAPKEGVSEKDFIFSISLLNHSYWIFGSLVGSLVGSHFSFDTQGMEFVMTAIFIVLFMEQYKRTTNHKNAWLGIVIAVVCLALFGTEYFLLIALVLMVLALMLFRKQLEC | failed
20 | MHFHLRNLRLHMETNGTPQSPAGDWRSYERMLLPPIQDLHKLGVYEEHGGYDRLRRVLEDDAFEPSDVTDEVKASGLTGRGGAGFPTGIKWTFMPEPDERPRFIGVNADESEPGTFKDRQVMEYNPHLMLEGILLAGYALHIDTAYVYIRGEYTDWIVHLKEQLENAYEAGYVGENIMGSDFTMDIVLHKGAGAYICGEETSLMESLEGKRGYPRYKPPFPAQSGIFGSPTTINNAETLAHVPLIVEQGGEAYSNIGAGDMPGPALYGMSGHVKNPGVYEFPTGMLLTDMIYDVCGGMARDKDLKAVVPGGSSVPPVPADQIDGISMNDESLGEVGSRTGTFCPLVLDEETDMVSFLRRVAHFYQDETCGQCTPCREGTSWLEKILARIDEGEGRMRDIDLLLELCDNMDGGRTICAFADGAVGPVRATVKRFREEFAAKCQASVHPVSTEVSAGAGSAVAATE | failed
